Assay: label from the status in PepcDB records
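Also: failed if final PepcDB status was selected cloned or expressed and not failed if soluble or beyond.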

Sequence | protein production
EKVDLQYAAYEPKKLQSGNKNPLIIWLHGQGEGGTDPDITLLGNKVTALIKEDIQNHFKSGNQKGTYVLTVQAPTYWMDEGDGSNGQGAGTSRYTEVLMDAIKKYVAKIT | failed
MSPTHKPMPEPTEVFTLPRWKITRWLTDTDRDVPTDIKRALIGSLFGTLSIFVGGVVNTLLVAALIAWHIQRPAFFAWFGLECLICIARISILVSARRRARAARSTHTDLHLALSLAWAFSVGLGTYLSITSGNWLAAALACLSSAAMIGGICFRNFGAPRMSGLMILLALGPCCLGAIVAREPLFLLTLIQLPVYVASMTSASFRMHAMLVATMQSERENAHRARHDSMTGLLNRGSLLAEIRATMECNAISPLRSALLYLDLDGFKRINDVHGHGCGDELLQQVADRMRATVPEGTHVSRIGGDEFVILLNLHESDDVQVLAQRLLRDIAVPYLLANGETVAIGVSIGITHISPNGQSADAVLNVADRALYVAKARGKGCFHFSEAVQAL | failed
MAKSKKIVFTGGGTVGHVTLNLILIPKFLKDGWEVHYIGDKHGVEHEQIDKSGLDVTFHSIATGKLRRYFSWQNMLDVFKVGWGILQSIAIIAKIRPQALFSKGGFVSVPPVIASKLLRVPVYVHESDLSMGLANKIAYKFATTMFTTFEQSKTLVKTRHVGAITKVGMTRFDNSDQLDKIKEQFDEKLKTVLFIGGSAGAKVFN | failed
MSNQYDPSQPVVFTDFSPKEGGMRTRLYIEGSNFGNDPTKIHITIGGEKTKTIGADGKKIYCMVPSKAFDGIINVRVDGPDGKPIAEHTFEEEFKYTPATIVGTLLRKVDEDNNSAFQEGSFDEGASIPSNDCMVFDPKYKDGDNRLLFSSNHSDGLHLIDLTERTVKRLFPRTGYSTMYSFTFSADGDTLLFTDDHGQDNTTRANIYYSLRRENFRRIRPYNYGRTAYSLVYMDDGTIFYTTWWEGKVYKMIRNGAIPNIDENAEVAFSLSQISAVGGSHTILFRHPSNKFMYMLSDNFGAVFRADYDPVAKTFGNPSIIAGNMNDKSFKEGTGGSARFNKPQFGVFVKNEKYGEGIGPDNDQYDFYFCDRENHCIWKLDPHGVASLAAGRSNENADGKIWGYVDGNPLHEARFNQPAGLAYDPDTDMFYIGDIDNKGIRYMTTELEHHHHHH | failed
MMNDSKARYGSITRFFHWSMAILVSWQFLKFFDRINDGEHWVGETLVPWHISIGSLILVLIVLRLGWTVKEKGNRPEHGSIIGVLAKIGHGLLYVALVLMPVTGIFYMVGNGYGLSAFNLEIIAKGEEVSWLINIGSLHSYIAWGLLFLVAGHIGMAFVHQFIIKDGTLKRMM | failed
MRVGALDVGEARIGLAVGEEGVPLASGRGYLVRKTLEEDVEALLDFVRREGLGKLVVGLPLRTDLKESAQAGKVLPLVEALRARGVEVELWDERFTTKLAQERLKHAPKRLRRDKGKLDELAAVVLLEDYLARGI | not failed
MAKILEGPAMKLFNKWGIPVPNYVVIMDPERLAQLGEANKWLRESKLVVKAHEAIGGRFKLGLVKLGLNLEEALEASREMIGRKIGTAVVRQVIVAEMLEHDEEYYVSIAGNRDGAELLLSTKGGVDIEDNWDTVKRLFIPMDETPSVERLTEVAAEAGFTGEVAERVAKIAARLILCFDNEDAQSIEINPLVIRKSDMRFAALDAVMNVDYDARFRHADWDFKPVSEIGRPYTEAEQQIMEIDARIKGSVKFVEVPGGEIALLTAGGGASVFYSDAVVARGGTIANYAEYSGDPPDWAVEALTETICRLPKIRHIIVGGAIANFTDVKATFSGIINGLRESRSKGYLQNVTIWVRRGGPNENQGLAAIRKLQDEGFDIHVYDRSMPMTDIVDLAMNS | failed
MNKAITVIVWLLVSLCVLAIITMPVSLQTHLVATAISLILLATIKSFNGQGAWRLVALGFGTAIVLRYVYWRTTSTLPPVNQLENFIPGFLLYLAEMYSVVMLGLSLVIVSMPLPSRKTRPGSPDYRPTVDVFVPSYNEDAELLANTLAAAKNMDYPADRFTVWLLDDGGSVQKRNAANIVEAQAAQRRHEELKKLCEDLDVRYLTRERNVHAKAGNLNNGLAHSTGELVTVFDADHAPARDFLLETVGYFDEDPRLFLVQTPHFFVNPDPIERNLRTFETMPSENEMFYGIIQRGLDKWNGAFFCGSAAVLRREALQDSDGFSGVSITEDCETALALHSRGWNSVYVDKPLIAGLQPATFASFIGQRSRWAQGMMQILIFRQPLFKRGLSFTQRLCYMSSTLFWLFPFPRTIFLFAPLFYLFFDLQIFVASGGEFLAYTAAYMLVNLMMQNYLYGSFRWPWISELYEYVQTVHLLPAVVSVIFNPGKPTFKVTAKDESIAEARLSEISRPFFVIFALLLVAMAFAVWRIYSEPYKADVTLVVGGWNLLNLIFAGCALGVVSERGDKSASRRITVKRRCEVQLGGSDTWVPASIDNVSVHGLLINIFDSATNIEKGATAIVKVKPHSEGVPETMPLNVVRTVRGEGFVSIGCTFSPQRAVDHRLIADLIFANSEQWSEFQRVRRKNPGLIRGTAIFLAIALFQTQRGLYYLVRARRPAPKSAKPVGAVK | failed
YTVEPVQDGERSVTLRRAGGTPLVAAMYHLPAAGSPDFVGLDLAATILADTPSGRLYHALVPTKLASGVFGFTMDQLDPGLAMFGAQLQPGMDQDKALQTLTATLESLSSKPFSQEELERARSKWLTAWQQTYADPEKVGVALSEAIASGDWRLFFLQRDRVRDAKLDDVQRAAVAYLVRSNRTEGRYIPTEKPQRAPLAQR | failed
MRSLTHIAKIEPPPVRRVTYVKHYSIQPANLEFNAEGTPVSRDFDDVYFSNDNGLEETRYVFLGGNQLEVRFPEHPHPLFVVAESGFGTGLNFLTLWQAFDQFREAHPQAQLQRLHFISFEKFPLTRADLALAHQHWPELAPWAEQLQAQWPMPLPGCHRLLLDEGRVTLDLWFGDINELTSQLDDSLNQKVDAWFLDGFAPAKNPDMWTQNLFNAMARLARPGGTLATFTSAGFVRRGLQDAGFTMQKRKGFGRKREMLCGVMEQTLPLPCSAPWFNRTGSSKREAAIIGGGIASALLSLALLRRGWQVTLYCADEAPALGASGNRQGALYPLLSKHDEALNRFFSNAFTFARRFYDQLPVKFDHDWCGVTQLGWDEKSQHKIAQMLSMDLPAELAVAVEANAVEQITGVATNCSGITYPQGGWLCPAELTRNVLELAQQQGLQIYYQYQLQNLSRKDDCWLLNFAGDQQATHSVVVLANGHQISRFSQTSTLPVYSVAGQVSHIPTTPELAELKQVLCYDGYLTPQNPANQHHCIGASYHRGSEDTAYSEDDQQQNRQRLIDCFPQAQWAKEVDVSDKEARCGVRCATRDHLPMVGNVPDYEATLVEYASLAEQKDEAVSAPVFDDLFMFAALGSRGLCSAPLCAEILAAQMSDEPIPMDASTLAALNPNRLWVRKLLKGKAVKAG | failed
MDNEEYYKILGVAKSASQDEIKHAYRKMSKKYHPDLNHQPGAEDKYKQVQEAYETLGDPQKRAAYDQYGKAGANANNGQGGFGGFQQSGFNFNGQDFGDFSDIFSQMFGGSFNPNAPRKGRDLQYRINLTFEEAVFGKETEIKYVRQESGGNSKEHTVKVTIPAGVETGQQMRLAGQGEAGTHGGPYGDLYVEFIVGKSKDGFERQGANIYLEEPINFVQAALGDKIKVKTVHGDVELTIPAGTQTDTEFRLRGKGAPYVNSSRIGDEYVKVIVQVPKRLNEKEKKALKTYADLRGENVNPQKRRGLFG | failed
MTNTLKTSYQKTPYKLGGNGPRNVGVLTEALQNIDDNLESDIYGNGAVIEDFETKIAKILGKQSAVFFPSGTMAQQIALRIWADRKENRRVAYHPLSHLEIHEQDGLKELQQITPLLLGTANQLLTIDDIKSLREPVSSVLIELPQREIGGQLPAFEELEKISEYCHEQGISLHLDGARLWEITPFYQKSAEEICALFDSVYVSFYKGIGGIAGAILAGNDDFVQEAKIWKRRYGGDLISLYPYILSADYYFEKRIGKMAEYFEAAKGLAERFNSCSGVKTVPEVPVSNMFHVYFENSADEIGAILTKIQDETGVGISGYLQEKSADVCAFEVSVGDAFAEIPAKNLELVFRCLEKEL | not failed
MGHHHHHHENLYFQSHMDSKRAALESGDGPDAKRLDTTDDQDKEASGGDGSQVMLAKHVAPYTGHGCTPPMESYLFEPTPAGSQLLPWKTSVDLDNDAELEKPTSDKKPDTAKLSRRELAKMRREHTLRALALERELTNKPGQTPASEVLLVRFPDPEITAPMLAG | not failed
